Bounds are passed on as bounds.

A short description of data set [1]: Gelation of peptide solutions on saline buffer treatment (time sweep). It counts as physicochemical. The conditions noted are these: saline buffer (0.15 M of NaCl); IEIK13 1.5%, KLD12 1.5%, PuraMatrix 2.5%. The procedure: The effect of salt ionic strength level surrounding peptide solution on the properties of peptide solutions was evaluated to identify the possibility of peptide gelation when the peptide solution is placed into the environment where salt ionic strength level is high. […] Without pH effect, the effect of saline treatment on gelation of peptide solutions were evaluated. […] This is because IEIK13 is much more sensitive to salt ionic strength levels. Fast gelation of IEIK13 at the salt ionic strength level similar to body fluid isotonic salt level may generally improve its function and gelation speed for various clinical applications. The results are shown in FIG. 19 for IEIK13, KLD12 and PuraMatrix® solutions. Time sweep tests were performed at 1 rad/sec and at 1 Pa with 20 mm plates and 500 μm gap distance. […]

In data set [2] the test system is pleural defects in swine lungs. In words: Burst pressure of peptide hydrogels as air sealants on pleural defects of swine lungs. Conditions: for ranking of burst pressures: 16 G pleural defects, 2.5% RADA16+0.25 M CaCl2 and 1.5% IEIK13. An excerpt:
Swine lungs were obtained from freshly euthanized pigs. An endotracheal tube was inserted through the trachea and primary bronchus into the lung of interest. Pressure was supplied to the lungs with the use of a manual endotracheal intubation pump. The trachea was tied off to prevent air leakage around the tube. The primary bronchus of the other lung was clamped to direct all airflow to the lung of interest. A manometer was used to measure the pressure of air directed into the lungs to induce expansion.
The self-assembling peptide hydrogels were comprised of Ac-RADARADARADARADA-NH2 (i.e. RADA16) (SEQ ID NO: 1), Ac-KLDLKLDLKLDL-NH2 (i.e. KLD12) (SEQ ID NO: 3), or Ac-IEIKIEIKIEIKI-NH2 (i.e. IEIK13) (SEQ ID NO: 2) with either RADA16 or KLD12 alone or mixed with 0.250 M calcium chloride. If alone, the peptides were reconstituted in deionized water. If, however the peptides were reconstituted with 0.250 M calcium chloride solution, the peptides were reconstituted first in deionized water, and subsequently, a 0.500 M solution of calcium chloride was mixed in at a 1:1 ratio.
The pleural defects were created using three different methods to measure the efficacy of the self-assembling peptide hydrogels: (1) A 16 gauge needle was used to puncture the lung and pleura, (2) A 5×5 mm area was measured and the lung and pleura were clipped using a pair of surgical scissors, and (3) A lobectomy (i.e. a complete resection of one lobe of the lung of interest). A 0.9% saline solution was streamed over the defect area and the location of the defect was identified by using the endotracheal intubation pump system to introduce air and observing the release of air bubbles.
Once the location of the defect was identified, the hydrogels were applied to the defect area via two different methods: (1) the hydrogel was applied topically by injecting through a syringe onto the defect area, and (2) the hydrogel was injected into the defect through an 18 gauge needle with overflow to cover the defect area topically. After a relaxation period of 2 min, pressure was applied through the endotracheal intubation pump until a burst pressure was identified. For any additional tests, airflow to the previously tested defect was cut off using a surgical clamp.

The nature of data set [3]: Rheological properties of peptide solutions and hydrogels after salt ionic strength adjustment. The class given is physicochemical. The conditions noted are these: for appearance of peptide solutions with salt and pH adjustment: 0.9% NaCl (ionic strength: 0.15 M) at pH 3.4 adjusted with NaOH; for rheological property of hydrogels after DMEM treatment at various ionic strengths: 1% hydrogels, DMEM treatment for 10 min; for rheological property of 1% solutions at various salt ionic strengths: 1% solution, storage modulus at 1 rad/sec; for rheological property of solutions after ionic strength adjustment with NaCl: NaCl to 0.7 M (PuraMatrix®), 0.2 M (KLD12) or 0.02 M (IEIK13), 1% solutions. The procedure:
Based on the visual observation of the effect of salt ionic strength on the properties of the peptide solutions, the effect on the rheological properties of the peptide solutions after adjusting their ionic strength level with NaCl to 0.7 M (PuraMatrix®), 0.2 M (KLD12) or 0.02 M (IEIK13), which is closely below the critical ionic strength at which each peptide becomes cloudy, was evaluated. If the ionic strength levels with NaCl of peptide solutions are higher than 0.9 M (PuraMatrix®), 0.3 M (KLD12) or 0.03 M (IEIK13), the peptide solution begin phase separation becoming cloudy and weak. The rheological property of PuraMatrix®, KLD12 and IEIK13 solutions was higher after adjusting their ionic strength level with NaCl to 0.7 M (PuraMatrix®), 0.2 M (KLD12) or 0.02 M (IEIK13), The results are shown in FIG. 10 for KLD12 1%, FIG. 11 for IEIK13 1%, and FIG. 12 for PuraMatrix® 1%, respectively. Frequency sweep tests were performed from 1 rad/s to 10 rad/s at 1 Pa.
Based on the results of the effect on the rheological properties of the peptide solutions after adjusting their ionic strength level with NaCl to 0.7 M (PuraMatrix®), 0.2 M (KLD12) or 0.02 M (IEIK13), the effect on the rheological properties of the peptide solution at various salt ionic strengths was evaluated. […] The results are shown in FIG. 13 for PuraMatrix® 1% solution and in FIG. 14 for IEIK13 1% solution. Frequency sweep tests were performed from 1 rad/sec to 10 rad/sec at 1 Pa and the storage modulus at 1 rad/sec was selected for data.
Based on the results of the effect on the rheological properties of the peptide solutions after adjusting their ionic strength levels, the effect on the rheological properties of the peptide hydrogels after DMEM treatment for 10 min was evaluated. […] The results are shown in FIG. 15 for PuraMatrix® 1% hydrogels and in FIG. 16 for IEIK13 1% hydrogels, both after DMEM treatment for 10 min Frequency sweep tests were performed from 1 rad/sec to 10 rad/sec at 1 Pa and the storage modulus at 1 rad/sec was selected for data.
Based on the results of the effect on the rheological properties of the peptide solutions and hydrogels after adjusting their ionic strength levels with NaCl, the effect of various salts (KCl, MgCl2, and CaCl2) was also evaluated. The rheological property of PuraMatrix® solutions increases with ionic strength adjustment at 0.15 M of all the salts. Increases of the rheological property of PuraMatrix® solutions with various salts were not predominantly different. However, increases of the rheological property of PuraMatrix® solutions may vary depending on the salting out constant, K of each salt. Constant K is a constant in Cohen's equation: log S=B−KI, where S is solubility, B is idealized solubility, K is salting out constant, and I is ionic strength. With a higher value of constant K and ionic strength of salts, solubility of the peptide may decrease resulting in strong peptide self-assembly with increased hydrophobic effect and higher rheological properties of the peptide solution. The constant K of NaCl may be higher than the other salts. […] The results are shown in FIG. 17 for PuraMatrix® 1% solution before DMEM treatment, and in FIG. 18 for PuraMatrix® 1% hydrogels after DMEM treatment for 10 min.
In accordance with one or more embodiments, IEIK13, KLD12, and PuraMatrix® may be dissolved both in salt buffer such as NaCl and at an elevated pH level adjusted with alkali salt buffer such as NaOH to keep their salt ionic strength under their critical salt points as well as their pH level to about 2.5˜4.0, so that they may have stiffer properties. With respect to PuraMatrix®, […] and IEIK13, the peptide solutions are still clear with 0.9% NaCl (ionic strength: 0.15 M) at pH 3.4 adjusted with NaOH. […] The effect of salt ionic strength and pH adjustment on the rheological properties of PuraMatrix® 2.5% solution are shown in FIG. 20. […]

As to “Arg-Ala-Asp-Ala-Arg-Ala-Asp-Ala-Arg-Ala-Asp-Ala-Arg-Ala-Asp-Ala [PuraMatrix ®]”, the “gelation after saline buffer treatment” value in data set [1] is “no or negligible gelation”. In addition, the “effect of increasing exposure time on burst pressure” value in data set [2] (2.5% RADA16, 16 G pleural defect, varying time points) is listed as “increased the burst pressure”. Also, in data set [2] (2.5% RADA16 applied topically, 14, 16, 18, and 22 gauge needles), the “effect of needle gauge of pleural defect on burst pressure” value was “negligible changes in burst pressures”. For the same substance, in data set [2] (2.5% RADA16 topically, 16 G pleural defect, 0.154 M NaCl gently massaged in), the “effect of topically added NaCl solution on burst pressure” value is listed as “slightly increased”. For the same substance, in data set [2], the “ranking of burst pressures” value was “best burst pressures”. In data set [3] (0.15 M ionic strength, 1%), the “rheological property of solutions with NaCl compared with KCl and CaCl2” value is “slightly higher”. For the same substance, in data set [3], the “appearance of peptide solutions with salt and pH adjustment” value (“appearance of peptide solutions” below) is reported as “still clear”; the “rheological property of hydrogels after DMEM treatment at various ionic strengths” value is “increased with ionic strength adjustment up to 0.7 M, while decreases above 0.7 M”; the “rheological property of 1% solutions at various salt ionic strengths” value is recorded as “increases with ionic strength adjustment up to 0.7 M, while decreases above 0.7 M”; the “ionic strength level with NaCl at which the peptide solution begins phase separation becoming cloudy and weak” value (shortened to “ionic strength level with NaCl”) was “higher than 0.9 M”. Besides, in data set [3], the “rheological property of solutions after ionic strength adjustment with NaCl” value is recorded as “higher”. In data set [3] (2.5% solution, 0.9% NaCl (0.15 M) at pH 3.4 vs control and only NaCl 0.9%), the “rheological property with salt and pH adjustment” value was “stiffer”. The “gelation with DMEM treatment” value in data set [3] (above 0.9 M of NaCl ionic strength) is listed as “no gelation”. For the same substance, the “rheological property of solutions with various salts” value in data set [3] (ionic strength adjustment at 0.15 M of all the salts (NaCl, KCl, MgCl2, CaCl2), 1%) is recorded as “increases”.
With “Ile-Glu-Ile-Lys-Ile-Glu-Ile-Lys-Ile-Glu-Ile-Lys-Ile [IEIK13]”, the “gelation after saline buffer treatment” value in data set [1] is “fast gelation”. For the same substance, the “ranking of burst pressures” value in data set [2] is “best burst pressures”. Further, in data set [3], the “appearance of peptide solutions” value is listed as “still clear”; the “rheological property of hydrogels after DMEM treatment at various ionic strengths” value is “did not significantly change with ionic strength adjustment up to 0.025 M, while decreases above 0.03 M”; the “rheological property of 1% solutions at various salt ionic strengths” value is “increases with ionic strength adjustment up to 0.03 M, while decreases above 0.03 M”; the “ionic strength level with NaCl” value is > 0.03 M. Further, the “rheological property of solutions after ionic strength adjustment with NaCl” value in data set [3] is “higher”.
With “Lys-Leu-Asp-Leu-Lys-Leu-Asp-Leu-Lys-Leu-Asp-Leu (Ac-KLDLKLDLKLDL-NH2) [KLD12]”, in data set [1], the “gelation after saline buffer treatment” value is “no or negligible gelation”. Moreover, in data set [3], the “appearance of peptide solutions” value is recorded as “still clear”; the “ionic strength level with NaCl” value is > 0.3 M; the “rheological property of solutions after ionic strength adjustment with NaCl” value is given as “higher”.

(Values after patent publication US20170173105A1, “AUTOASSEMBLING PEPTIDES FOR THE TREATMENT OF PULMONARY LEAKAGE” (3-D MATRIX, LTD., priority 2014, published 2017).)
